The data set is described as follows: label from the status in PepcDB records.

For “MTQHPFISRVAVRNYKSIGYCDVNLRPLTYLVGHNGAGKSNFMDALHFVCDALSYSLDSALNERGGINEVRRRSGGHPTHFALRVEFVMQSGQAGRYGFVIGALKNGGYEVQREECVVAGIGKGPFFRIEKGKLRDSSETTFPSVTADRLALVAASGLTAFRPVFDALTAMGFYNLNPKLMRELQKPQDGRLLRPAGENIASVIGHLEKVAPAQMALIQEYLHSVAPMVHGVERKPIGPMETLEFRQDMAGSKHPWRFLAQNMSDGTLRALGVLSALLQGNVDYSPTLIGIEEPETALHPAASAALREALVRASETTQVLVTSHSPDLLDDHSIDADAVLAVVSEAGETKVAPLDEGSRQVMRDHLFSAGELLRMNQLAPDRASLEQQDKAASGDLFGETESVLEHHHHHH”, the protein production entry is “not failed”.

Consider “MTQMKIFVIGAHGQIGKKIVSKLVAQGDQVYAGIRQPEQAEAFEDAGAQPVQFNLMAQPEDLALAFNGMDAIVFAAGSGGQTGYDMTLMIDLDGAVKSMVAAKIAGVKRYVIISAEFTPDRSRWPRALQPYYVAKYYADEWLKNRTQLDYTILQPGTLINDAGTGKVTVNPDVGGEITRDDVATFTVQTLHTPATVGKTIALINGDTPISKAVQQA”, for which the protein production entry was “failed”.

Turning to “MTQNVLNERPAGQKPVALSSFRGCINGLYGDVLQGWAIDITQPDQRPVIEVFVDGASVALARADQHEPNAPHGDHFHGFTVQLRQSLLADANRITAQIANTGIHLEGEIELPSQPPQETAAVASQVWHTGGLRVGGWSWDPQAPHRHVVVTLREGSRVVAQVTCNTHHQALAYRATSDHGFAIDLPWELADGKLHVIEVTNDLGQSLPGSPIRLRCRPEGLEGLLHQLELKPDAAMQALVAEVAKEQSSRLPKSAGWQHYPRWYDAFQKREPIAAIPSRFRPGLLLLSEGDATLEKISLDSLGDDAESVHQLAKAAPADLLPAVEQLLAAGCDSIIQIAAGDKLAPRAMAQLRNLLEEGCAWAYADCDRDGPQGQRSQPWFKPVWDIDLFIGADIFSTGAIFSAAIVKEALALLKAGKKQSAINRHDLIAGIALATELNGRSVTHLPRVLYHRSSDTCTSPEQAAPSKQRKDAVAWLCQGLAPGAHVSAVPDYPALLRAHWPLPEQLPRVSLIVPTRDQYKLLHACIEGLLNNTDYPDLEIIVVDNQSTDPQTLAYLAELKQRGVKILAHPHPFNYSTINNRAASAATGELIGLVNNDIEIIESGWLKEMVSQALRPGIGAVGAKLLWPNRMVQHGGVVVGVNGLAAHAGNTLEQRDAGYLGMNQVTRRQSAVTAACLLLRKSLFDSIQGLDERAFPVAFNDVDLCLRIHELGLRNVWTAFAQLIHAESASRGKDISPEKMARAQREQQLFTERWSVSYRDPYYHPALSLDYLTGPYGGLSLPPEPEYCAPRKLASSETHGHIYLADPS”, the protein production result is “failed”.

As for “MTQRDTGRLDAIVLAAGRGVRFGGGKLTALLDGDPLVAAALLTAFLAPARRVVVAVGPEPDVRQAVEATATRLLARERLVLVPIDDPSAGMGASLAAAARSLPGDTDGVFVFLGDMPRIDPATPRHLAAALRDPGDIVAPTYLGRRGHPVLFGARWAPVLGALSGDEGARAIVDKAGESLVLVPVDDPGVHLDVDRPSDLARVQTDRRTLLEHHHHHH”, the protein production entry was “not failed”.

“MTQRRATRRRFLMGCSAIASVGLAGCTGGDESTATDSTPSPTDDGDAEPTTTTDEPPATDTATATPDQEAVETLVSVGGDRVPENMALGPDGGLYFGITAGEVRRVPAAETGATGLSLEDTEQIATLPGAIGVEAAPDGTVYVAVATQDDQAGVWEIPLDGDAAQLVEMGGFPNDIHYDADQERLLVTESQNGVVYAVTTDGERSTWLDDDRLETESFGANGITRDADGDIFVAVTRAPEETGRLLRVPVESDGAAGEPSMFFEGGAIFGADGITSRDGDIYVAANSQNRVVRVTADGTTDVVATADNGLVFPSDVLFRTGDQQESLFICNFANQSPEDGAILRTSVPR”: the protein production entry is listed as “failed”.

As for “MTQSALHTEFGGIAALRDALARRQVSAVELAQSGLDAAQAASGLNAFLHIDPELTLAQARAADAALAAGTAGPLAGIPIAHKDAFVTRGWRTTAGSKMLAGYASPFDATVVERLAEAGAVSLGKLNCDEFAMGSGNENSAYGPVRNPWDTRAVPGGSSGGSAAAVAARLVAAATGTDTGGSVRQPAALCGVSGIKPTYGTVSRYGMIAFGSSLDQAGPLAPSSRDLLELLDVMTGFDPRDATSLQACDGQANESGRVRRGHDAAQAGYDAAGSQPLKGLRIGVPQEYFGAGLAPDVAAAVEAALAQFEQLGAVRVPVSLPRTELAIPAYYVIAPAEASSNLARYDGVRYGHRAAQYGDLNEMISRSRAEGFGDEVKRRILIGTYVLSHGYYDAYYLQAQRLRRLIAQDFQRAFADQCDVIMGPVSPTVAKNIGDNRDDPTADWLADVYTLGVSLAGLPAMSVPCGFGGQDGRRPVGLQIIGNYFDEGRLLALADRYQQVTDWHQRAPVSQDA”, the protein production entry is “failed”.

As to “MTQTGSARFEGDSWDLASSVGLTATMVAAARAVAGRAPGALVNDQFAEPLVRAVGVDFFVRMASGELDPDELAEDEANGLRRFADAMAIRTHYFDNFFLDATRAGIRQAVILASGLDSRAYRLRWPAGTIVFEVDQPQVIDFKTTTLAGLGAAPTTDRRTVAVDLRDDWPTALQKAGFDNAQRTAWIAEGLLGYLSAEAQDRLLDQITAQSVPGSQFATEVLRDINRLNEEELRGRMRRLAERFRRHGLDLDMSGLVYFGDRTDARTYLADHGWRTASASTTDLLAEHGLPPIDGDDAPFGEVIYVSAELKQKHQDTR”, the protein production result was “not failed”.

Consider “MTQVIIDGDACPVTNSIIELTKGTGIFVTVVRSFSHFSTVIQPEHVNIIYVDDGPDAVDYRIVKLVHSDDLVVTQDYGLASLLLNKAKIVMHHKGLEHHHHHH”, for which the protein production entry is given as “failed”.

Regarding “MTRAKQIILWASLSAMPLIAQASERSDDEIKALVYQAILERPEIILQAVEQLQQAEEAAQAASAHAALTENRDSLFNDPNAPVLGNPEGDVTVVEFFDYNCPYCRRAMAEVQGLVDADPNVRLVYREWPILGEGSDFAARAALAARQQGKYEAFHWALMGMSGKANETGVLRIAREVGLDTEQLQRDMEAPEVTAHIAQSMALAQKLGFNGTPSFVVEDALVPGFVEQSQLQDAVDRARKAAAK”, the protein production entry is listed as “failed”.

On to “MTRAPSGGTEAPPGRTARRAGWDGRCQAAGHRSRRGGLSTGGDEVSTSDSDDAGLRSFLADPAHLTLDLRTATARCVKALGLRHAVVYLVDLQQRHLVPQTAVAPSVPVDGSPAGWAYRTQSLRVEESGTGGGITAWFPLLDGAERLGVLALCETALTASSLTRGRALASLLAMVITSKRLYEDSFVRRTRTERMTLPAEMLRALLPPRTIGNGNVVSTAVLEPAYEIGGDAFDHALTETTLHVAVLDAMGHDLASGLTTTVSLAACRNARRTGADLPELVRSVDEALSSWLPDKFCTSVIAQLDLVTGVLRWANCGHPAPILIRDQRLVIDAMERDADPPMGMPSLLSPHARRTHEISLEPGDRVLMYTDGVVEARTREAKLLGLERFADYVIRATAGGELAPESLRRLIHSILAMQEGRLRDDATLLMFEWRPPS”, for which the protein production entry is listed as “failed”.

With “MTRKKLNLSYITNESMRKATFNKRKKGLVKKIHELSVLCGIEACAVIYSPFNSNPEVWPSNSEVKNVMENFEMLTKLEQEKKMVSHEGFIRQNISKTMESNNKKMIDNAERTMKEAMFQLLSGKGEKLNLTDRNREDLCKYIDQYLKELYHHKNKTINQSHIEPGESSGATNAMTPTSVVENPNFNHLSHNQYQYQQQFGYPILVQDGIYNPSQIQNQHEEWLDDHMMNHSKEISHPLMDDNNFYYQQP”, the protein production result is “not failed”.

With “MTRLIQAIFILGFAAFVACTPKSAKSFAKAEVQYKQAEYQHAIENYQQSLSEGGDVAQCNYYIAESYRRSNRIQEAEPFYKKAIEAGIKDEEAHFFYANALKSVGNYEGAATQYKQYIKTGSNFDYINRAKKELENLKALQEVVEKETYYKVENIGQINSPEAEYAPYIYKNQLYFTSSRDAEKMHAATGTGFTNIHEYVFDGVEKFSGQSVPLSNAINTDGAHEASCILTKDGKTMIFARGNSGAKKGPQDVDLFKTTLQSDGKWSEPVMLAINDPAAWDACPALSLDEKTLYFASNREAEGALGNVDIYKATLDEKGEWSNPVNIGAPINTRGNDMYPSFNKDGKFYFASDGHPSLGSLDIFYVDPKESKIVNMGKPINTSYDDFGLVWKDSLEGYFASNRIDNGAKGDDDIYFVRNTFWDRRAKYYVDGTSFAKSKKNPKAILPNSIIYLLSCKGDTLKSIVSDTEGKFEFELKPDTCYYLAAHSDKYFAMPKSEWTPVKIATVPIKDLDIGDNSIKKKAEVMLVKKERIVIVRNILYDYDKWDIRPDAAVELDTMVMLMNANPEIQIELGSHTDERGSAEYNRVLAQKRAQAAVDYIIAHGISKDRIIAKGYGEDEPAIRNAKTEADHQTNRRTTFKVLNHFSDELEIKSGE”, the protein production entry is reported as “failed”.

The record behind these values is a protein production outcome set (Wang et al. 2014).
